In patent US20250277025A1:

Biological target: recombinant huCLDN18.2-Fc (Sino Biological, P/N: 20047-H02H) (human)
Experiment: KinExA 4000 equilibrium, antibody constant, recombinant huCLDN18.2-Fc titrated

Row | Binder | Kd
1 | YL-G2-B (antibody, human IgG1, kappa) heavy: EVQLQQSGPELEKPGASVKISCKASGYSFTGYKMNWVKQSNGKSLEWIGNIDPYYGGTTYNQKFKGKATLTVDKSSSTAYMQLKSLTSEDSAVYYCARYGKGNTMDYWGQGTSVTVSSASTKGPSVFPLAPSSKSTSGGTAALGCLVKDYFPEPVTVSWNSGALTSGVHTFPAVLQSSGLYSLSSVVTVPSSSLGTQTYICNVNHKPSNTKVDKRVEPKSCDKTHTCPPCPAPELVGGPSVFLLPPKPKDTLMISRTPEVTCVVVDVSHEDPEVKFNWYVDGVEVHNAKTKPPEEQYNSTLRVVSVLTVLHQDWLNGKEYKCKVSNKALPAPIEKTISKAKGQPREPQVYTLPPSREEMTKNQVSLTCLVKGFYPSDIAVEWESNGQPENNYKTTPLVLDSDGSFFLYSKLTVDKSRWQQGNVFSCSVMHEALHNHYTQKSLSLSPGK light: DIVMTQSPSSLTVTAGEKVTMSCKSSQSLLNSGNQKNYLTWYQQRPGQPPKLLIYWASTRESGVPVRFTGSGSGTDFTLTISSVQAEDLAVYYCQNAYIYPLTFGTGTKLELKRTVAAPSVFIFPPSDEQLKSGTASVVCLLNNFYPREAKVQWKVDNALQSGNSQESVTEQDSKDSTYSLSSTLTLSKADYEKHKVYACEVTHQGLSSPVTKSFNRGEC | 1.7 nM
2 | YL-G2-C (antibody, human IgG1, kappa) heavy: QIQLVQSGPELRKPGETVKISCKASGFPFTTDGMSWVKQAPGKGLKWMGWINTYSGVPTYADDFKGRVAFSLETSASTAYLQIKNLKNEDTATYFCARFRRGNALDNWGQGTSVTVSSASTKGPSVFPLAPSSKSTSGGTAALGCLVKDYFPEPVTVSWNSGALTSGVHTFPAVLQSSGLYSLSSVVTVPSSSLGTQTYICNVNHKPSNTKVDKRVEPKSCDKTHTCPPCPAPELVGGPSVFLLPPKPKDTLMISRTPEVTCVVVDVSHEDPEVKFNWYVDGVEVHNAKTKPPEEQYNSTLRVVSVLTVLHQDWLNGKEYKCKVSNKALPAPIEKTISKAKGQPREPQVYTLPPSREEMTKNQVSLTCLVKGFYPSDIAVEWESNGQPENNYKTTPLVLDSDGSFFLYSKLTVDKSRWQQGNVFSCSVMHEALHNHYTQKSLSLSPGK light: DIVMTQSPSSLTVTAGEKVTMSCKSSQSLLNSGNQKNYLTWYQQKPGQPPKLLIYWASTRESGVPDRFTGSGSGTDFTLTISSVQAEDLAIYYCQNNYFYPLTFGAGTRLELKRTVAAPSVFIFPPSDEQLKSGTASVVCLLNNFYPREAKVQWKVDNALQSGNSQESVTEQDSKDSTYSLSSTLTLSKADYEKHKVYACEVTHQGLSSPVTKSFNRGEC | 3.8 nM
3 | YL-G2-D (antibody, human IgG1, kappa) heavy: QLQQSGPELEKPGASVKISCKASGYSFTGYKMNWVKQSNGESLEWIGNIDPYYGDTTYTQKFKGKATFTVDTSSSTAYMQLKSLTSEDSAVYFCARYNRGNTMDYWGQGTSVTVSSASTKGPSVFPLAPSSKSTSGGTAALGCLVKDYFPEPVTVSWNSGALTSGVHTFPAVLQSSGLYSLSSVVTVPSSSLGTQTYICNVNHKPSNTKVDKRVEPKSCDKTHTCPPCPAPELVGGPSVFLLPPKPKDTLMISRTPEVTCVVVDVSHEDPEVKFNWYVDGVEVHNAKTKPPEEQYNSTLRVVSVLTVLHQDWLNGKEYKCKVSNKALPAPIEKTISKAKGQPREPQVYTLPPSREEMTKNQVSLTCLVKGFYPSDIAVEWESNGQPENNYKTTPLVLDSDGSFFLYSKLTVDKSRWQQGNVFSCSVMHEALHNHYTQKSLSLSPGK light: DIVMTQSPSSLTVTAGEKVTLSCKSSQSLLNSGNQKNYLTWYQQRPGQPPKLLIYWASTRESGVPVRFTGSGSGADFTLTISSVQAEDLAVYFCQNAYFYPLTFGTGTKLELRRTVAAPSVFIFPPSDEQLKSGTASVVCLLNNFYPREAKVQWKVDNALQSGNSQESVTEQDSKDSTYSLSSTLTLSKADYEKHKVYACEVTHQGLSSPVTKSFNRGEC | 6.4 nM
